Tests used:
[1] = target: T1, HpfX (EgHpfX), 3-sulfopropionaldehyde dehydrogenase (Enterococcus gilvus, UniProt R2XKF7); assay: LC-MS of product 3-SPC, HpfD-coupled; format: biochemical; conditions: 3-SPA made in situ by HpfD from 40 mM 3-HPS; 4 mM NAD+, 0.5 mM CoA, CAPSO pH 9.5, RT
T1 construct: gene I592_01329
T1 sequence (R2XKF7 1-455): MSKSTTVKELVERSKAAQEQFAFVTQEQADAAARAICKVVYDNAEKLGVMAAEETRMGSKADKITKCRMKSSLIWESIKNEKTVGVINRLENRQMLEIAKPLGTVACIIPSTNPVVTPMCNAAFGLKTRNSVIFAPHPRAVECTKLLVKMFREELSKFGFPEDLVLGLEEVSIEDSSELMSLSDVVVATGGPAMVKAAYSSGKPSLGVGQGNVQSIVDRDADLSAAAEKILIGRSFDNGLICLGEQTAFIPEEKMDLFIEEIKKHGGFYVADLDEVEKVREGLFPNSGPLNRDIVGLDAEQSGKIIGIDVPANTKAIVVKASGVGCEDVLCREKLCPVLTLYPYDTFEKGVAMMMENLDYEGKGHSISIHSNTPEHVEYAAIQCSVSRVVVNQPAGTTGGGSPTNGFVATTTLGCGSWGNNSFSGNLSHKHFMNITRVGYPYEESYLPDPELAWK

[2] = target: T1, HpfX (EgHpfX), 3-sulfopropionaldehyde dehydrogenase; assay: spectrophotometric NADH consumption, A340, HpfYZ-coupled; format: biochemical; conditions: reduction of 3-SPC made in situ by HpfYZ; 0.4 mM NADH, 10 mM 3-SP, 2 mM ATP, 0.4 mM CoA, 10 mM MgCl2, Tris pH 7.5, RT
[3] = tested on: NC(=O)c1ccc[n+]([C@@H]2O[C@H](COP(=O)(O)OP(=O)(O)OC[C@H]3O[C@@H](n4cnc5c(N)ncnc54)[C@H](O)[C@@H]3O)[C@@H](O)[C@H]2O)c1; assay: purified protein; conditions: apparent, oxidation direction, 40 mM 3-HPS, 50 mM CAPSO pH 9.5, RT
O=S(=O)(O)CCCO = assay: purified protein; conditions: apparent, oxidation direction, 4 mM NAD+, 50 mM CAPSO pH 9.5, RT
[4] = substrate: CC(C)(COP(=O)(O)OP(=O)(O)OC[C@H]1O[C@@H](n2cnc3c(N)ncnc32)[C@H](O)[C@@H]1OP(=O)(O)O)[C@@H](O)C(=O)NCCC(=O)NCCS; assay: PK-LDH coupled spectrophotometric assay, A340; format: biochemical, Enterococcus gilvus; conditions: apparent, 2 mM 3-SP, 2 mM ATP, 10 mM MgCl2, 50 mM KCl, Tris-HCl pH 7.5, RT
[5] = substrate: Nc1ncnc2c1ncn2[C@@H]1O[C@H](COP(=O)(O)OP(=O)(O)OP(=O)(O)O)[C@@H](O)[C@H]1O; assay: PK-LDH coupled spectrophotometric assay, A340; format: biochemical, Enterococcus gilvus; conditions: apparent, 2 mM 3-SP, 0.4 mM CoA, 10 mM MgCl2, 50 mM KCl, Tris-HCl pH 7.5, RT
[6] = substrate: O=C(O)CCS(=O)(=O)O; assay: PK-LDH coupled spectrophotometric assay, A340; format: biochemical, Enterococcus gilvus; conditions: apparent, 2 mM ATP, 0.4 mM CoA, 10 mM MgCl2, 50 mM KCl, Tris-HCl pH 7.5, RT

`O=CCCS(=O)(=O)O` [3-SPA] was tested, and the “LC-MS of product 3-SPC, HpfD-coupled” value [1] was “The ability of the HpfX to oxidize 3-SPA into 3-SPC was ascertained”.

For `NC(=O)C1=CN([C@@H]2O[C@H](COP(=O)(O)OP(=O)(O)OC[C@H]3O[C@@H](n4cnc5c(N)ncnc54)[C@H](O)[C@@H]3O)[C@@H](O)[C@H]2O)C=CC1` [NADH], the “spectrophotometric NADH consumption, A340, HpfYZ-coupled” value [2] was “indicating reduction of 3-SPC accompanied by the consumption of NADH”.

In the case of “HpfD (EgHpfD), 3-sulfopropionaldehyde reductase (Enterococcus gilvus ATCC BAA-350)”, the Km [3] is reported as 640 ± 90 µM, the kcat [3] is reported as 20.87 ± 0.84 s⁻¹ and the Km (O=S(=O)(O)CCCO) is reported as 4970 ± 570 µM. The kcat (O=S(=O)(O)CCCO) was 15.30 ± 0.37 s⁻¹.

B1: HpfYZ (EgHpfY / EgHpfZ), 3-sulfopropionate-CoA ligase (Enterococcus gilvus ATCC BAA-350) (protein)
chain 1: MDYLEIEGKAQLERFGIPINESILLTGDNIPEDIPYPCVLKGQILSGKRGKAGAVRVVKTRAELIEAKEIIEQIKINDQVMEGVIACGFLPIEEEYYLGMTLDVKNRAMIMLFTPFGGMDIEELAETDPEKLLRFDCTEGFNAEKFKKASTIFELPEKRLNLVVDIAEKLSEACFALDATTIEINPLALLKDESLMAIDAKLVIDDNALYRQGDYTILPRTVQEKSLQEIEAEQYDLTYVEVDPKGNIGTMAGGAGIGMATMDTVFHYGGRVNNFLDLGGGVTSEKTYQAMRILLENENTDYILINIFGGINNCADMAEGITRAYKESGISKTVVVKSRGFNQEQGWSMYKELGFPQAKYGTTDEAVQILLALKGAK
chain 2: MSILINQETELLIIGITGKQGRIHAKRTIESGAKLRAGVAPGKNGEMVEGIPVFESVEDARKEFPQIRAAMLLTPPRFVKDAAIQALQSGIELLVIITEFVPVLDTLEIVTKAKKLGAKVVGPNTIGVIAPGKSKLGIMPADIYGKGRIGIISRSGTLTHETASNLTFKGYGLSTCVGIGGDSIVGMDHADVLELFANDDETDAIVLIGEIGGTSEEMAAAKIKELNIQKPICAYIAGMHAPENKKMGHAGAIVSGNMGTVKSKVEALEDAGVTVCPTLGKIVEFMEKTNSQTNGKLRSLEPKVDASILQT
notes: N-terminal His6-TEV tagged HpfY co-expressed with untagged HpfZ in E. coli BL21(DE3), co-purified 1:1 (predicted heterodimer); codon-optimized genes
With B1 the Km [4] was 110 ± 30 µM, the kcat [4] was 0.45 ± 0.04 s⁻¹ and the Km [5] was 180 ± 140 µM. It also gave a kcat [5] of 0.33 ± 0.01 s⁻¹, a Km [6] of 510 ± 70 µM and a kcat [6] of 0.38 ± 0.01 s⁻¹.
